The values below come from IntAct's records for PubMed 10946006.

B1: Microsomal triglyceride transfer protein large subunit (Homo sapiens), P55157 (parent)
chain: MILLAVLFLCFISSYSASVKGHTTGLSLNNDRLYKLTYSTEVLLDRGKGKLQDSVGYRISSNVDVALLWRNPDGDDDQLIQITMKDVNVENVNQQRGEKSIFKGKSPSKIMGKENLEALQRPTLLHLIHGKVKEFYSYQNEAVAIENIKRGLASLFQTQLSSGTTNEVDISGNCKVTYQAHQDKVIKIKALDSCKIARSGFTTPNQVLGVSSKATSVTTYKIEDSFVIAVLAEETHNFGLNFLQTIKGKIVSKQKLELKTTEAGPRLMSGKQAAAIIKAVDSKYTAIPIVGQVFQSHCKGCPSLSELWRSTRKYLQPDNLSKAEAVRNFLAFIQHLRTAKKEEILQILKMENKEVLPQLVDAVTSAQTSDSLEAILDFLDFKSDSSIILQERFLYACGFASHPNEELLRALISKFKGSIGSSDIRETVMIITGTLVRKLCQNEGCKLKAVVEAKKLILGGLEKAEKKEDTRMYLLALKNALLPEGIPSLLKYAEAGEGPISHLATTALQRYDLPFITDEVKKTLNRIYHQNRKVHEKTVRTAAAAIILNNNPSYMDVKNILLSIGELPQEMNKYMLAIVQDILRFEMPASKIVRRVLKEMVAHNYDRFSRSGSSSAYTGYIERSPRSASTYSLDILYSGSGILRRSNLNIFQYIGKAGLHGSQVVIEAQGLEALIAATPDEGEENLDSYAGMSAILFDVQLRPVTFFNGYSDLMSKMLSASGDPISVVKGLILLIDHSQELQLQSGLKANIEVQGGLAIDISGAMEFSLWYRESKTRVKNRVTVVITTDITVDSSFVKAGLETSTETEAGLEFISTVQFSQYPFLVCMQMDKDEAPFRQFEKKYERLSTGRGYVSQKRKESVLAGCEFPLHQENSEMCKVVFAPQPDSTSSGWF
partner: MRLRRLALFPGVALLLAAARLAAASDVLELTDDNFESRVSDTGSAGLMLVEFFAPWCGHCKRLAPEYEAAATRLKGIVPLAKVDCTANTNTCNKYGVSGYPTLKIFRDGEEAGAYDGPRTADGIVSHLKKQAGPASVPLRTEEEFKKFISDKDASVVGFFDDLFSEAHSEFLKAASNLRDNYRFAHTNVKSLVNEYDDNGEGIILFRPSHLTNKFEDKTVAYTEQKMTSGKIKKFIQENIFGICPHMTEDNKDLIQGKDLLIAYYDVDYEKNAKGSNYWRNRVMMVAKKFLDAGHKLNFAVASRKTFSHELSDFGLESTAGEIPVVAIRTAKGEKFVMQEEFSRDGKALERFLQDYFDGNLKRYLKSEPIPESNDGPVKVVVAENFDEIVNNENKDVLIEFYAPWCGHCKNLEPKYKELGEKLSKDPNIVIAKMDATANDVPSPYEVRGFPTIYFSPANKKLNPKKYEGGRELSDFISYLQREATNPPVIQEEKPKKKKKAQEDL

This experiment covers variants of B1. The settings on record: with pdia3_chlae PDIA3, Q4VIT4.
For the variant N780Y, the “effect of a mutation on the interaction” value is on record as “with no effect”.
